In PMC9018508:

Target: CD40L (UniProt P29965)
Assay: SPR

Sequence of UniProt P29965 (P29965 116-261): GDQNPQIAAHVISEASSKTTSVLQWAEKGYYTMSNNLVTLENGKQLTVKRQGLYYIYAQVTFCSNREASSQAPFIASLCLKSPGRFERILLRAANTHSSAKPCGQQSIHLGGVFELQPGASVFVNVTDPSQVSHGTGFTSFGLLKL

Kd: 41.6 nM
Substance: 5c8Ile^L98 → 7-HCAA Fab
